Measured values reported in patent publication US20230416365A1 (Hoffmann-La Roche, published 2023).
Where a chain is given by its changes, count along the chain named.

T1: N(A2B2)A-avi-His (biotinylated at the avi tag)
T1 construct: also called biotinylated N(A2B2)A-avi-His
T1 chain: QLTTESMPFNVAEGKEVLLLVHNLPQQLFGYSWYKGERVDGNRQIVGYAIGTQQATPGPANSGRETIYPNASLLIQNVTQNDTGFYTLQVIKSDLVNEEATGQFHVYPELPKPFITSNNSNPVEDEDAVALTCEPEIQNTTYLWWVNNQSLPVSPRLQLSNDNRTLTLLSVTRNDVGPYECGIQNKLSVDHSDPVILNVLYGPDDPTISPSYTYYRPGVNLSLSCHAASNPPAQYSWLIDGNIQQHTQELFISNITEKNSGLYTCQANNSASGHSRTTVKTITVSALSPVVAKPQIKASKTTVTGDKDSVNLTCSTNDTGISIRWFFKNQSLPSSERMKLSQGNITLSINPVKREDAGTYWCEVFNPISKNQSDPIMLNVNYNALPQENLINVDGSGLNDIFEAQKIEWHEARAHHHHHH

T2: Hu N(A2-B2)A-avi-His (human, biotinylated at the avi tag (Example 2.2))
T2 construct: also called hu N(A2-B2)A-avi-His B; CEACAM5-based antigen
T2 chain: T1 chain

B1: bispecific CEA (P005.102)-CD28 (SA Variant 15) 1+1 IgG (bispecific antibody)
heavy 1: EIVLTQSPATLSLSPGERATLSCRASSSVTYIHWYQQKPGQAPRSWIYATSNLASGIPARFSGSGSGTDFTLTISSLEPEDFAVYYCQHWSSKSPTFGQGTKLEIKSSASTKGPSVFPLAPSSKSTSGGTAALGCLVKDYFPEPVTVSWNSGALTSGVHTFPAVLQSSGLYSLSSVVTVPSSSLGTQTYICNVNHKPSNTKVDKKVEPKSCDKTHTCPPCPAPEAAGGPSVFLFPPKPKDTLMISRTPEVTCVVVDVSHEDPEVKFNWYVDGVEVHNAKTKPREEQYNSTYRVVSVLTVLHQDWLNGKEYKCKVSNKALGAPIEKTISKAKGQPREPQVCTLPPSRDELTKNQVSLSCAVKGFYPSDIAVEWESNGQPENNYKTTPPVLDSDGSFFLVSKLTVDKSRWQQGNVFSCSVMHEALHNHYTQKSLSLSP
light 1: EVQLLESGGGLVQPGGSLRLSCAASGFTFTDYYMNWVRQAPGKGLEWLGFIGNKANAYTTEYSASVKGRFTISRDKSKNTLYLQMNSLRAEDTATYYCTRDRGIRFQFDYWGQGTTVTVSSASVAAPSVFIFPPSDEQLKSGTASVVCLLNNFYPREAKVQWKVDNALQSGNSQESVTEQDSKDSTYSLSSTLTLSKADYEKHKVYACEVTHQGLSSPVTKSFNRGEC
heavy 2: not shown
light 2: not shown
notes: knob-into-hole, crossmab, PG-LALA
B2: bispecific CEA (P005.102-combo2)-CD28 (SA Variant 15) 1+1 IgG (bispecific antibody)
heavy 1: B1 heavy 1
light 1: B1 light 1 with T28Y, T30S, F50V, G52S
heavy 2: not shown
light 2: not shown
notes: as for B1
B3: bispecific CEA (P006.038-combo1)-CD28 (SA Variant 15) 1+1 IgG (bispecific antibody)
heavy 1: B1 heavy 1 with K93V, S94P
light 1: B1 light 1 with T28Y, Y33A, F50V, G52S, Q107G
heavy 2: not shown
light 2: not shown
notes: as for B1
B4: bispecific CEA (P002.139)-CD28 (SA Variant 15) 1+1 IgG (bispecific antibody)
heavy 1: B1 heavy 1 with R24H, S94P
light 1: B1 light 1 with T28Y, Y33A, F50V, G52S, I104L, Q107Y
heavy 2: not shown
light 2: not shown
notes: as for B1
B5: bispecific CEA (P005.103-combo2)-CD28 (SA Variant 15) 1+1 IgG (bispecific antibody)
heavy 1: B1 heavy 1 with K93I
light 1: B1 light 1 with T28Y, F50V, G52S, Q107S
heavy 2: not shown
light 2: not shown
notes: as for B1
B6: bispecific CEA (P005.103)-CD28 (SA Variant 15) 1+1 IgG (bispecific antibody)
heavy 1: B1 heavy 1 with K93I
light 1: B1 light 1 with Q107Y
heavy 2: not shown
light 2: not shown
notes: as for B1
B7: bispecific CEA (P005.102-combo1)-CD28 (SA Variant 15) 1+1 IgG (bispecific antibody)
heavy 1: B1 heavy 1
light 1: B1 light 1 with T28Y, F50V, G52S
heavy 2: not shown
light 2: not shown
notes: as for B1
B8: bispecific CEA (P005.097)-CD28 (SA Variant 15) 1+1 IgG (bispecific antibody)
heavy 1: B1 heavy 1 with K93Q, S94P
light 1: B1 light 1 with I104L, Q107S
heavy 2: not shown
light 2: not shown
notes: as for B1
B9: bispecific CEA (P006.038-combo2)-CD28 (SA Variant 15) 1+1 IgG (bispecific antibody)
heavy 1: B1 heavy 1 with K93V, S94P
light 1: B1 light 1 with T30S, Y33E, G52S, Q107G
heavy 2: not shown
light 2: not shown
notes: as for B1
B10: bispecific CEA (P006.038)-CD28 (SA Variant 15) 1+1 IgG (bispecific antibody)
heavy 1: B1 heavy 1 with K93V, S94P
light 1: B1 light 1 with Q107G
heavy 2: not shown
light 2: not shown
notes: as for B1
B11: bispecific CEA (P005.103-combo1)-CD28 (SA Variant 15) 1+1 IgG (bispecific antibody)
heavy 1: B1 heavy 1 with K93I
light 1: B1 light 1 with Q107S
heavy 2: not shown
light 2: not shown
notes: as for B1
B12: bispecific CEA (P001.177)-CD28 (SA Variant 15) 1+1 IgG (bispecific antibody)
heavy 1: B1 heavy 1 with S94P
light 1: B1 light 1 with T28Y, G52S, I104L, Q107Y
heavy 2: not shown
light 2: not shown
notes: as for B1
B13: bispecific CEA (A5H1EL1D)-CD28 (SA Variant 15) 1+1 IgG of Example 10.3 (bispecific antibody)
heavy 1: EVQLLESGGGLVQPGGSLRLSCAASGFTFTDYYMNWVRQAPGKGLEWLGFIGNKANAYTTEYSASVKGRFTISRDKSKNTLYLQMNSLRAEDTATYYCTRDRGLRFYFDYWGQGTTVTVSSASTKGPSVFPLAPSSKSTSGGTAALGCLVKDYFPEPVTVSWNSGALTSGVHTFPAVLQSSGLYSLSSVVTVPSSSLGTQTYICNVNHKPSNTKVDKKVEPKSCDKTHTCPPCPAPEAAGGPSVFLFPPKPKDTLMISRTPEVTCVVVDVSHEDPEVKFNWYVDGVEVHNAKTKPREEQYNSTYRVVSVLTVLHQDWLNGKEYKCKVSNKALGAPIEKTISKAKGQPREPQVCTLPPSRDELTKNQVSLSCAVKGFYPSDIAVEWESNGQPENNYKTTPPVLDSDGSFFLVSKLTVDKSRWQQGNVFSCSVMHEALHNHYTQKSLSLSP
light 1: EIVLTQSPATLSLSPGERATLSCRASSSVTYIHWYQQKPGQAPRSWIYATSNLASGIPARFSGSGSGTDFTLTISSLEPEDFAVYYCQHWSSKPPTFGQGTKLEIKRTVAAPSVFIFPPSDEQLKSGTASVVCLLNNFYPREAKVQWKVDNALQSGNSQESVTEQDSKDSTYSLSSTLTLSKADYEKHKVYACEVTHQGLSSPVTKSFNRGEC
heavy 2: not shown
light 2: not shown
notes: as for B1
B14: CEA (A5H1EL1D)-CD28 (SA_Variant 29) 1+1 format (Molecule 11D) (bispecific antibody, human IgG1, kappa, L234A L235A)
heavy 1: B1 heavy 1 with S94P
light 1: B1 light 1 with I104L, Q107Y
heavy 2: not shown
light 2: not shown
notes: huIgG1 PG-LALA CrossFab; also called P1AE4776
B15: CEA (A5H1EL1D)-CD28 (SA_Variant 8) 1+1 format (Molecule 11B) (bispecific antibody, human IgG1, kappa, L234A L235A)
heavy 1: B1 heavy 1 with S94P
light 1: B1 light 1 with I104L, Q107Y
heavy 2: not shown
light 2: not shown
notes: huIgG1 PG-LALA CrossFab; also called P1AE4774
B16: CEA (A5B7) Fab (parental murine antibody) (Fab, V domains shown)
VH: EVKLVESGGGLVQPGGSLRLSCATSGFTFTDYYMNWVRQPPGKALEWLGFIGNKANGYTTEYSASVKGRFTISRDKSQSILYLQMNTLRAEDSATYYCTRDRGLRFYFDYWGQGTTLTVSS
VL: QTVLSQSPAILSASPGEKVTMTCRASSSVTYIHWYQQKPGSSPKSWIYATSNLASGVPARFSGSGSGTSYSLTISRVEAEDAATYYCQHWSSKPPTFGGGTKLEIK
notes: Fab; also called P1AE0289
B17: Fab derived from P1AE2166 (Fab, V domains shown)
VH: EVQLLESGGGLVQPGGSLRLSCAASGFTFTDYYMNWVRQAPGKGLEWLGFIGNKANGYTTEYSASVKGRFTISRDKSKNTLYLQMNSLRAEDTATYYCTRDRGLRFYFDYWGQGTTVTVSS
VL: EIVLTQSPATLSLSPGERATLSCRASSSVTYIHWYQQKPGSSPKSWIYATSNLASGIPARFSGSGSGTDFTLTISSLEPEDFAVYYCQHWSSKPPTFGQGTKLEIK
notes: Fab; also called P1AE4137
B18: Fab derived from P1AE2176 (Fab, V domains shown)
VH: B17 VH with L48V, K76N, T95V
VL: B17 VL
notes: Fab; also called P1AE4139
B19: Fab derived from P1AE2179 (Fab, V domains shown)
VH: B17 VH with L48V, T95V, T99A
VL: B17 VL with E1Q, I2T, F70Y
notes: Fab; also called P1AE4141
B20: Fab derived from P1AE2165 (Fab, V domains shown)
VH: B17 VH
VL: B17 VL with E1Q, I2T, S41Q, S42A, K44R, S45L, W46L
notes: Fab; also called P1AE4136
B21: Fab derived from P1AE2181 (Fab, V domains shown)
VH: B17 VH with L48V, T95V, T99A
VL: B17 VL
notes: Fab; also called P1AE4142
B22: Fab derived from P1AE2177 (Fab, V domains shown)
VH: B17 VH with L48V, K76N, T95V
VL: B17 VL with S41Q, S42A, K44R
notes: Fab; also called P1AE4140
B23: Fab derived from P1AE2167 (Fab, V domains shown)
VH: B17 VH
VL: B17 VL with S41Q, S42A, K44R
notes: Fab; also called P1AE4138
B24: Fab derived from P1AE2182 (Fab, V domains shown)
VH: B17 VH with L48V, T95V, T99A
VL: B17 VL with S41Q, S42A, K44R
notes: Fab; also called P1AE4143
B25: Fab derived from P1AE2164 (Fab, V domains shown)
VH: B17 VH
VL: B17 VL with E1Q, I2T, F70Y
notes: Fab; also called P1AE4135

Molecular target: T1, N(A2B2)A-avi-His
Assay: SPR, ProteOn, antigen on NLC chip, bispecific IgG as analyte
Protocol: About 2000, 1000, 500, and 250 RU of biotinylated N(A2B2)A-avi-His were immobilized on 4 channels of a Streptavidin-coated NLC chip in vertical orientation. As a control for non-specific binding, 2000 RU of biotinylated NA(B2)A-avi-His protein was immobilized on channel 5. For the determination of the affinity (KD) of the purified bispecific constructs, injection direction was changed to horizontal orientation. […] Buffer (PBST) was injected along the sixth channel to provide an “in-line” blank for referencing. Regeneration was performed with 10 mM glycine pH 1.5 for 20 s at 50 ul/min (vertical orientation).
Association rate constants (kon) and dissociation rate constants (koff) were calculated using a simple one-to-one Langmuir binding model in ProteOn Manager v3.1 software by simultaneously fitting the association and dissociation sensorgrams. The equilibrium dissociation constant (KD) was calculated as the ratio koff/kon.

Kd [nM]	koff [s⁻¹]	kon [M⁻¹ s⁻¹]	Binder
0.2	3.31e-05	160000	B1
0.08	1.85e-05	225000	B2
4.48	0.000799	178000	B3
0.39	9.7e-05	249000	B4
0.09	1.05e-05	123000	B5
0.44	0.000112	257000	B6
0.06	1.23e-05	207000	B7
0.33	8.87e-05	269000	B8
3.66	0.000698	191000	B9
0.22	5.87e-05	267000	B10
0.27	3.42e-05	126000	B11
0.43	8.83e-05	205000	B12
2.11	0.000333	158000	B13

molecular target: T3, biotinylated huCD28-Fc (dimeric CD28-Fc construct with a monovalent biotinylated avi-tag) (human, UniProt P10747 19-152, biotinylated at the C-terminal avi tag); assay: SPR, ProteOn XPR36, huCD28-Fc immobilised, bispecific as analyte
T3 construct: not shown: hum IgG1 Fc fragment with hole and PG-LALA mutations; hum IgG1 Fc fragment with knob and PG-LALA mutations

Kd [nM]	koff [s⁻¹]	kon [M⁻¹ s⁻¹]	Binder
1.2	0.000324	271000	B14
58	0.0098	169000	B15

Molecular target: T2, Hu N(A2-B2)A-avi-His
Assay: SPR, Biacore T200, antigen amine-coupled on CM5, Fab as analyte
Description: Data were double-referenced against the unimmobilized flow cell 1 and a zero concentration of the analyte. The sensorgrams of the analytes were fitted to a simple 1:1 Langmuir interaction model.

Kd [nM]	Binder
0.559	B16
11.3	B17
7.58	B18
1.83	B19
1.25	B20
2.64	B21
7.62	B22
1.47	B23
2.92	B24
1.7	B25
